# Experimental data published in publication PMC10100024 (British Journal of Pharmacology, 2022).
# Assays:
# Experiment in all cases: FRET or BRET
# [1] = molecular target: T1, pplss-3HA-hCB1 receptor S462A/T465A (D2) (human, UniProt P21554 1-472, S462A | T465A)
# [2] = molecular target: T2, pplss-3HA-hCB1 receptor S464A/T467A (D3) (human, UniProt P21554 1-472, S464A | T467A)
# [3] = molecular target: T3, pplss-3HA-hCB1 receptor S462A/S464A/T465A (T) (human, UniProt P21554 1-472, S462A | S464A | T465A)
# [4] = molecular target: T4, pplss-3HA-hCB1 receptor S425A/S429A (D1) (human, UniProt P21554 1-472, S425A | S429A)
# [5] = molecular target: T5, pplss-3HA-hCB1 receptor, wild type (human, UniProt P21554 1-472)
# [6] = molecular target: T6, pplss-3HA-hCB1 receptor T465A/S468A (D4) (human, UniProt P21554 1-472, T465A | S468A)
# [7] = molecular target: T1, pplss-3HA-hCB1 receptor S462A/T465A (D2); remark: listed apart in the source
# [8] = molecular target: T2, pplss-3HA-hCB1 receptor S464A/T467A (D3); remark: listed apart in the source
# [9] = molecular target: T3, pplss-3HA-hCB1 receptor …; remark: listed apart in the source
# [10] = molecular target: T4, pplss-3HA-hCB1 receptor S425A/S429A (D1); remark: listed apart in the source
# [11] = molecular target: T5, pplss-3HA-hCB1 receptor, wild type; remark: listed apart in the source
# [12] = molecular target: T6, pplss-3HA-hCB1 receptor T465A/S468A (D4); remark: listed apart in the source
binder,measurement,setting,value
"Nluc-(human)-Arrestin-2-Sp1 (natural protein, UniProt P49407 1-418, looked up) MGDKGTRVFKKASPNGKLTVYLGKRDFVDHIDLVDPVDGVVLVDPEYLKERRVYVTLTCAFRYGREDLDVLGLTFRKDLFVANVQSFPPAPEDKKPLTRLQERLIKKLGEHAYPFTFEIPPNLPCSVTLQPGPEDTGKACGVDYEVKAFCAENLEEKIHKRNSVRLVIRKVQYAPERPGPQPTAETTRQFLMSDKPLHLEASLDKEIYYHGEPISVNVHVTNNTNKTVKKIKISVRQYADICLFNTAQYKCPVAMEEADDTVAPSSTFCKVYTLTPFLANNREKRGLALDGKLKHEDTNLASSTLLREGANREILGIIVSYKVKVKLVVSRGGLLGDLASSDVAVELPFTLMHPKPKEEPPHREVPENETPVDTNLIELDTNDDDIVFEDFARQRLKGMKDDKEEEEDGTGSPQLNNR",Emax of net translocation (%WT),[1],32.3 %WT
same,Emax of net translocation (%WT),[2],32.9 %WT
same,Emax of net translocation (%WT),[3],25.6 %WT
same,Emax of net translocation (%WT),[4],72.3 %WT
same,Emax of net translocation (%WT),[5],100 %WT
same,Emax of net translocation (%WT),[6],61.6 %WT
same,initial rate of translocation,[7],3.77e-05 ΔBRET ratio per second
same,steady state (ΔBRET ratio),[7],0.012 ΔBRET ratio
same,translocation half time,[7],286 s
same,initial rate of translocation,[8],3.06e-05 ΔBRET ratio per second
same,steady state (ΔBRET ratio),[8],0.014 ΔBRET ratio
same,translocation half time,[8],354 s
same,initial rate of translocation,[9],3.32e-05 ΔBRET ratio per second
same,steady state (ΔBRET ratio),[9],0.014 ΔBRET ratio
same,translocation half time,[9],354 s
same,initial rate of translocation,[10],5.81e-05 ΔBRET ratio per second
same,steady state (ΔBRET ratio),[10],0.036 ΔBRET ratio
same,translocation half time,[10],569 s
same,initial rate of translocation,[11],0.000136 ΔBRET ratio per second
same,steady state (ΔBRET ratio),[11],0.036 ΔBRET ratio
same,translocation half time,[11],185 s
same,initial rate of translocation,[12],7.31e-05 ΔBRET ratio per second
same,steady state (ΔBRET ratio),[12],0.022 ΔBRET ratio
same,translocation half time,[12],210 s
